Source: paper PMC5033645 (Nature structural & molecular biology, 2016)

Key:
[1] = pan-SV2 immunoblot of neuron lysates; details: glycan lost
[2] = target: BoNT/A1 receptor-binding domain (HCA), wild type (UniProt P0DPI0 872-1296); experiment: SPR

B1: SV2B: SV2B-N516A (protein)
parent chain: MDDYRYRDNYEGYAPNDGYYRGNEQNPEEDAQSDVTEGHDEEDEIYEGEYQGIPHPDDVKSKQTKMAPSRADGLRGQADLMAERMEDEEQLAHQYETIIDECGHGRFQWTLFFVLVLALMADGVEVFVVSFALPSAEKDMCLSSSKKGMLGLIVYLGMMAGAFILGGLADKLGRKKVLSMSLAINASFASLSSFVQGYGAFLFCRLISGIGIGGSLPIVFAYFSEFLSREKRGEHLSWLGIFWMTGGIYASAMAWSIIPHYGWGFSMGTNYHFHSWRVFVIVCALPATVSMVALKFMPESPRFLLEMGKHDEAWMILKQVHDTNMRAKGTPEKVFTVSHIKTPKQMDEFIEIQSSTGTWYQRWLVRFMTIFKQVWDNALYCVMGPYRMNTLILAVVWFTMALSYYGLTVWFPDMIRYFQDEEYKSKMKVFFGEHVHGATINFTMENQIHQHGKLVNDKFIKMYFKHVLFEDTFFDKCYFEDVTSTDTYFKNCTIESTTFYNTDLYKHKFIDCRFINSTFLEQKEGCHMDFEEDNDFLIYLVSFLGSLSVLPGNIISALLMDRIGRLKMIGGSMLISAVCCFFLFFGNSESAMIGWQCLFCGTSIAAWNALDVITVELYPTNQRATAFGILNGLCKLGAILGNTIFASFVGITKVVPILLAAASLVGGGLVALRLPETREQVLM
expression_or_secretion ([1]; control: WT SV2B): decreases

B2: SUMO-bSV2C: human SV2C-L4 (V473-T567) with 6xHis/SUMO tag, expressed in E. coli (domain or fragment)
chain: VERDKYANFTINFTMENQIHTGMEYDNGRFIGVKFKSVTFKDSVFKSCTFEDVTSVNTYFKNCTFIDTVFDNTDFEPYKFIDSEFKNCSFFHNKT
Kd [2]: ~86 nM | koff [2]: 0.11 s⁻¹

B3: SV2C (full length, in neurons): SV2C-N559A (protein)
parent chain: MEDSYKDRTSLMKGAKDIAKEVKKQTVKKVNQAVDRAQDEYTQRSYSRFQDEDDDDDYYPPGETYSGEANDDEGSSEATEGHDEEDEIYEGEYQGIPSTNQGKDSIVSVGQPKGDEYKDRRELESERRADEEELAQQYELIIQECGHGRFQWALFFVLGMALMADGVEVFVVGFVLPSAETDLCIPNSGSGWLGSIVYLGMMVGAFFWGGLADKVGRKQSLLICMSVNGFFAFLSSFVQGYGFFLLCRLLSGFGIGGAIPTVFSYFAEVLAREKRGEHLSWLCMFWMIGGIYASAMAWAIIPHYGWSFSMGSAYQFHSWRVFVIVCALPCVSSVVALTFMPESPRFLLEVGKHDEAWMILKLIHDTNMRARGQPEKVFTVNKIKTPKQIDELIEIESDTGTWYRRCFVRIRTELYGIWLTFMRCFNYPVRENTIKLTIVWFTLSFGYYGLSVWFPDVIKHLQSDEYALLTRNVQKDKYANFSINFTMENQVHTGMEYDNGRFLGVKFKSVTFKDSVFKSCTFDDVTSVNTYFKNCTFIDTLFENTDFEPYKFIDSEFQNCSFLHNKTGCQITFDDDYSAYWIYFVNFLGTLAVLPGNIVSALLMDRIGRLTMLGGSMVLSGISCFFLWFGTSESMMIGMLCLYNGLTISAWNSLDVVTVELYPTDRRATGFGFLNALCKAAAVLGNLIFGSLVSITKAIPILLASTVLVCGGLVGLRLPDTRTQVLM
expression_or_secretion ([1]; control: WT SV2C): decreases

B4: SV2A: SV2A-N573A (protein)
parent chain: MEEGFRDRAAFIRGAKDIAKEVKKHAAKKVVKGLDRVQDEYSRRSYSRFEEEEDDDDFPAPADGYYRGEGAQDEEEGGASSDATEGHDEDDEIYEGEYQGIPRAESGGKGERMADGAPLAGVRGGLSDGEGPPGGRGEAQRRKDREELAQQYETILRECGHGRFQWTLYFVLGLALMADGVEVFVVGFVLPSAEKDMCLSDSNKGMLGLIVYLGMMVGAFLWGGLADRLGRRQCLLISLSVNSVFAFFSSFVQGYGTFLFCRLLSGVGIGGSIPIVFSYFSEFLAQEKRGEHLSWLCMFWMIGGVYAAAMAWAIIPHYGWSFQMGSAYQFHSWRVFVLVCAFPSVFAIGALTTQPESPRFFLENGKHDEAWMVLKQVHDTNMRAKGHPERVFSVTHIKTIHQEDELIEIQSDTGTWYQRWGVRALSLGGQVWGNFLSCFSPEYRRITLMMMGVWFTMSFSYYGLTVWFPDMIRHLQAVDYAARTKVFPGERVEHVTFNFTLENQIHRGGQYFNDKFIGLRLKSVSFEDSLFEECYFEDVTSSNTFFRNCTFINTVFYNTDLFEYKFVNSRLVNSTFLHNKEGCPLDVTGTGEGAYMVYFVSFLGTLAVLPGNIVSALLMDKIGRLRMLAGSSVLSCVSCFFLSFGNSESAMIALLCLFGGVSIASWNALDVLTVELYPSDKRTTAFGFLNALCKLAAVLGISIFTSFVGITKAAPILFASAALALGSSLALKLPETRGQVLQ
expression_or_secretion ([1]; control: WT SV2A): no change
